# Data taken from US20160115500A1 (University of California, published 2016).
# Substitutions are numbered along the chain they refer to. Names and notes keep the numbering of the source.
# T1: GAL4 activation domain fusion (ACT) to HAB1 (UniProt Q9CAJ0 23-511, limits assumed)
# T1 construct: pACT-HAB1 fusion in yeast reporter strains; also called pACT-HAB1
# T1 sequence (looked up): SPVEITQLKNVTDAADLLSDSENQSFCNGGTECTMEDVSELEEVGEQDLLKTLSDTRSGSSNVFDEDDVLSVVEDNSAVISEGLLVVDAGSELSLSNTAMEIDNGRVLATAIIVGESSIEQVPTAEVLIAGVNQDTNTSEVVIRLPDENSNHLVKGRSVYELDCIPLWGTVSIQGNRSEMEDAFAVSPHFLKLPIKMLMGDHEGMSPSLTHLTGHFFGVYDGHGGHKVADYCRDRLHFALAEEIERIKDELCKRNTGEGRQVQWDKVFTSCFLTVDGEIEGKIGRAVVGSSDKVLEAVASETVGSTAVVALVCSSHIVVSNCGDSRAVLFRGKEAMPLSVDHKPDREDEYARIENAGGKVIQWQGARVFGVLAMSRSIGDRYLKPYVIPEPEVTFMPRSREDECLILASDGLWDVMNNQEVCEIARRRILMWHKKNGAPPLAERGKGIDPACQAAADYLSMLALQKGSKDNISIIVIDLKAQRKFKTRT
# B1: PYR1^K59R,M158C (receptor, not shown: small tags and cut ends)
# chain: MPSELTPEERSELKNSIAEFHTYQLDPGSCSSLHAQRIHAPPELVWSIVRRFDKPQTYRHFIKSCSVEQNFEMRVGCTRDVIVISGLPANTSTERLDILDDERRVTGFSIIGGEHRLTNYKSVTTVHRFEKENRIWTVVLESYVVDMPEGNSEDDTRCFADTVVKLNLQKLATVAEAMARNSGDGSGSQVT
# notes: pBD-PYR1 fusion in yeast
# B2: PYR1^K59R,S92W (receptor)
# chain: B1 chain with S92W, C158M
# notes: pBD-PYR1 fusion in yeast
# B3: PYR1^K59R,A89I,S92W (receptor)
# chain: B1 chain with A89I, S92W, C158M
# notes: pBD-PYR1 fusion in yeast
# B4: PYR1^K59R,M158V (receptor, not shown: small tags and cut ends)
# chain: B1 chain with C158V
# notes: pBD-PYR1 fusion in yeast
# B5: PYR1^K59R,A89W (receptor)
# chain: B1 chain with A89W, C158M
# notes: pBD-PYR1 fusion in yeast
# B6: PYR1^K59R,A89I,S92I (receptor)
# chain: B1 chain with A89I, S92I, C158M
# notes: pBD-PYR1 fusion in yeast
# B7: PYR1^K59R,L87F (receptor)
# chain: B1 chain with L87F, C158M
# notes: pBD-PYR1 fusion in yeast
# B8: PYR1^K59R,S92I (receptor)
# chain: B1 chain with S92I, C158M
# notes: pBD-PYR1 fusion in yeast
# B9: PYR1^K59R,M158T (receptor, not shown: small tags and cut ends)
# chain: B1 chain with C158T
# notes: pBD-PYR1 fusion in yeast
# B10: PYR1^K59R,A89I (receptor)
# chain: B1 chain with A89I, C158M
# notes: pBD-PYR1 fusion in yeast
# B11: PYR1^K59R,F159I (receptor, not shown: small tags and cut ends)
# chain: B1 chain with C158M, F159I
# notes: pBD-PYR1 fusion in yeast; also called K59R F1591
# B12: PYR1^K59R,F159C (receptor, not shown: small tags and cut ends)
# chain: B1 chain with C158M, F159C
# notes: pBD-PYR1 fusion in yeast
# B13: PYR1^K59R,F159T (receptor, not shown: small tags and cut ends)
# chain: B1 chain with C158M, F159T
# notes: pBD-PYR1 fusion in yeast
# B14: PYR1^K59R,F108L (receptor)
# chain: B1 chain with F108L, C158M
# notes: pBD-PYR1 fusion in yeast
# B15: PYR1^K59R,F159M (receptor, not shown: small tags and cut ends)
# chain: B1 chain with C158M, F159M
# notes: pBD-PYR1 fusion in yeast
# B16: PYR1^K59R,F159A (receptor, not shown: small tags and cut ends)
# chain: B1 chain with C158M, F159A
# notes: pBD-PYR1 fusion in yeast
# B17: PYR1^K59R,F159L (receptor, not shown: small tags and cut ends)
# chain: B1 chain with C158M, F159L
# notes: pBD-PYR1 fusion in yeast
# B18: PYR1^K59R,A89C (receptor, not shown: small tags and cut ends)
# chain: B1 chain with A89C, C158M
# notes: pBD-PYR1 fusion in yeast
# B19: PYR1^K59R,V81I (receptor, not shown: small tags and cut ends)
# chain: B1 chain with V81I, C158M
# notes: pBD-PYR1 fusion in yeast
# B20: PYR1^K59R,E141Y (receptor)
# chain: B1 chain with E141Y, C158M
# notes: pBD-PYR1 fusion in yeast
# B21: PYR1^K59R,A89C,A160G (receptor, not shown: small tags and cut ends)
# chain: B1 chain with A89C, C158M, A160G
# notes: pBD-PYR1 fusion in yeast
# B22: PYR1^K59R,E141K (receptor, not shown: small tags and cut ends)
# chain: B1 chain with E141K, C158M
# notes: pBD-PYR1 fusion in yeast
# B23: PYR1^K59R,T162Y (receptor, not shown: small tags and cut ends)
# chain: B1 chain with C158M, T162Y
# notes: pBD-PYR1 fusion in yeast
# B24: PYR1^K59R,T162K (receptor, not shown: small tags and cut ends)
# chain: B1 chain with C158M, T162K
# notes: pBD-PYR1 fusion in yeast
# B25: PYR1^K59R,A89C,L117C (receptor)
# chain: B1 chain with A89C, L117C, C158M
# notes: pBD-PYR1 fusion in yeast
# B26: PYR1^K59R,V164Y (receptor, not shown: small tags and cut ends)
# chain: B1 chain with C158M, V164Y
# notes: pBD-PYR1 fusion in yeast
# B27: PYR1^K59R,E141Y,A160G (receptor)
# chain: B1 chain with E141Y, C158M, A160G
# notes: pBD-PYR1 fusion in yeast
# B28: PYR1^K59R,V164K (receptor, not shown: small tags and cut ends)
# chain: B1 chain with C158M, V164K
# notes: pBD-PYR1 fusion in yeast
# B29: PYR1^K59R,A160G,L117C (receptor)
# chain: B1 chain with L117C, C158M, A160G
# notes: pBD-PYR1 fusion in yeast
# B30: PYR1^K59R,L117C (receptor, not shown: small tags and cut ends)
# chain: B1 chain with L117C, C158M
# notes: pBD-PYR1 fusion in yeast
# B31: PYR1^K59R,M158I (receptor, not shown: small tags and cut ends)
# chain: B1 chain with C158I
# notes: pBD-PYR1 fusion in yeast
# B32: PYR1^K59R,A160G,V164K (receptor)
# chain: B1 chain with C158M, A160G, V164K
# notes: pBD-PYR1 fusion in yeast
# B33: PYR1^K59R,A89C,E141Y (receptor, not shown: small tags and cut ends)
# chain: B1 chain with A89C, E141Y, C158M
# notes: pBD-PYR1 fusion in yeast
# B34: PYR1^K59R,V83L (receptor, not shown: small tags and cut ends)
# chain: B1 chain with V83L, C158M
# notes: pBD-PYR1 fusion in yeast
# B35: PYR1^K59R,A160G (receptor, not shown: small tags and cut ends)
# chain: B1 chain with C158M, A160G
# notes: pBD-PYR1 fusion in yeast
# B36: PYR1^K59R,A89C,V164K (receptor, not shown: small tags and cut ends)
# chain: B1 chain with A89C, C158M, V164K
# notes: pBD-PYR1 fusion in yeast
# B37: PYR1^K59R,L117C,V164K (receptor)
# chain: B1 chain with L117C, C158M, V164K
# notes: pBD-PYR1 fusion in yeast
# B38: PYR1^K59R,N167C (receptor, not shown: small tags and cut ends)
# chain: B1 chain with C158M, N167C
# notes: pBD-PYR1 fusion in yeast
# B39: PYR1^K59R,Y120M (receptor, not shown: small tags and cut ends)
# chain: B1 chain with Y120M, C158M
# notes: pBD-PYR1 fusion in yeast
# B40: PYR1^K59R,A160C (receptor, not shown: small tags and cut ends)
# chain: B1 chain with C158M, A160C
# notes: pBD-PYR1 fusion in yeast
# B41: PYR1^K59R,E94D (receptor, not shown: small tags and cut ends)
# chain: B1 chain with E94D, C158M
# notes: pBD-PYR1 fusion in yeast
# B42: PYR1^K59R,L87P (receptor, not shown: small tags and cut ends)
# chain: B1 chain with L87P, C158M
# notes: pBD-PYR1 fusion in yeast
# Target: T1, GAL4 activation domain fusion (ACT) to …
# Experiment: yeast two-hybrid, X-gal; lowest benoxacor concentration giving signal
# Protocol: The set of 475 mutant plasmids were individually transformed into the Y190 yeast two hybrid reporter strain co-transformed with pACT-HAB1, as previously described (Park et al., 2009). The yeast strains generated were arrayed into 96-well plates yielding what we refer to as the “pocket library”. The pocket library strains were spotted onto agar plates containing selective synthetic dextrose (minus Leu & Trp) medium that was supplemented with a single test compound at 100 μM. The pocket library strains were separately tested for responsiveness to the following compounds: dichlobenil, benzothiadiazole, mandipropamid, fludioxonil, and benoxacor. After incubating test plates at 30° C. for two days, colonies were chloroform lysed and stained to reveal β-galactosidase expression levels, using previously described methods (Park et al., 2009). Mutants displaying responsiveness to the test compound, if present, were identified by virtue of X-gal staining and then subjected to subsequent optimization efforts. Using this approach we identified mutations that conferred detectable sensitivity to the compounds tested (see entries labeled “Pocket Library Screens” in Table 1).
row,Threshold,Binder
1,100 µM,B1
2,50 µM,B2
3,50 µM,B3
4,100 µM,B4
5,100 µM,B5
6,50 µM,B6
7,100 µM,B7
8,50 µM,B8
9,100 µM,B9
10,100 µM,B10

# Target: T1, GAL4 activation domain fusion (ACT) to …
# Experiment: yeast two-hybrid, X-gal; lowest mandipropamid concentration giving signal
row,Threshold,Binder
1,100 µM,B11
2,100 µM,B5
3,100 µM,B12
4,100 µM,B13
5,100 µM,B14
6,100 µM,B15
7,100 µM,B16
8,100 µM,B17

# Target: T1, GAL4 activation domain fusion (ACT) to …
# Experiment: yeast two-hybrid, X-gal; lowest benzothiadiazole concentration giving signal
row,Threshold,Binder
1,100 µM,B18
2,100 µM,B19
3,100 µM,B11
4,100 µM,B20
5,100 µM,B1
6,100 µM,B4
7,5 µM,B21
8,100 µM,B12
9,100 µM,B22
10,100 µM,B23
11,100 µM,B24
12,25 µM,B25
13,100 µM,B13
14,100 µM,B26
15,5 µM,B27
16,100 µM,B28
17,25 µM,B29
18,100 µM,B30
19,100 µM,B9
20,100 µM,B31
21,5 µM,B32
22,0.2 µM,B33
23,100 µM,B34
24,100 µM,B15
25,100 µM,B35
26,0.2 µM,B36
27,100 µM,B37
28,100 µM,B16
29,100 µM,B17

# Target: T1, GAL4 activation domain fusion (ACT) to …
# Experiment: yeast two-hybrid, X-gal; lowest fludioxonil concentration giving signal
row,Threshold,Binder
1,100 µM,B19
2,100 µM,B38
3,100 µM,B39
4,100 µM,B20
5,100 µM,B1
6,100 µM,B4
7,100 µM,B40
8,100 µM,B13
9,100 µM,B41
10,100 µM,B14
11,100 µM,B7
12,100 µM,B28
13,100 µM,B42
14,100 µM,B9
15,100 µM,B31
16,100 µM,B34
17,100 µM,B16

# Target: T1, GAL4 activation domain fusion (ACT) to …
# Experiment: yeast two-hybrid, X-gal; lowest dichlobenil concentration giving signal
row,Threshold,Binder
1,100 µM,B38
2,100 µM,B11
3,100 µM,B20
4,100 µM,B1
5,100 µM,B4
6,100 µM,B40
7,100 µM,B23
8,100 µM,B24
9,100 µM,B41
10,100 µM,B26
11,100 µM,B28
12,100 µM,B42
13,100 µM,B9
14,100 µM,B31
15,100 µM,B34
16,100 µM,B17
